Assay results taken from US20160046672A1, “STAPLING eIF4E INTERACTING PEPTIDES” (AGENCY FOR SCIENCE, TECHNOLOGY AND RESEARCH, priority 2013, published 2016).
Positions of bridges follow the written chain, without caps; N, C: chain ends. Non-standard residues stand in square brackets, D forms with d. R5 = C=CCCC[C@@](C)(N)C(=O)O; S5 = C=CCCC[C@](C)(N)C(=O)O; Aib = CC(C)(N)C(=O)O

Columns and labels:
circular dichroism = conditions: 5 mM sodium phosphate; pH 7.0; ns °C; 0.5 or 2 mg/mL
[1] = Circular dichroism, percent α-helicity in solution; format: physicochemical; conditions: CD, 5 mM sodium phosphate buffer pH 7.0
Protocol: CD was measured on a JASCO J-810 spectropolarimeter, and spectra were either recorded with a quartz cuvette (Helmer) with a pathlength of 0.01 cm or 0.1 cm in 5 mM sodium phosphate buffer (pH 7.0). FUV CD spectra were recorded from 260 nm to 200 nm at a peptide concentration of either 2 mg/ml or 0.5 mg/ml, respectively. The CD signal was converted into mean residue ellipticity in units of degree·cm^2·dmol^−1·residue^−1. CD spectra were recorded at a data pitch of 0.2 nm at 50 nm min^−1, a response time of 2 s, and a bandwidth of […]. Once converted to mean residue ellipticity, percent α-helicity can be calculated with equation (1) and (2): […]

eIF4E [2] = biological target: T1, eIF4E (Homo sapiens, UniProt P06730); assay: eIF4E affinity (SPR/FP, method not named); format: binding
T1 construct: made in house
Protocol: Apparent Kd values were determined for a variety of molecules via competitive anisotropy anisotropy experiments. Titrations were carried out with the concentrations eIF4E held constant at 200 nM, respectively and the labeled peptide at 50 nM. The competing molecules were then titrated against complex of the FAM labeled peptide and protein. Apparent Kd values were determined by fitting the experimental data to the equations shown below: […]
(§1) Six buffer blanks were first injected to equilibrate the instrument fully and then a solvent correction curve was performed followed by a further two blank injections. […] Using a flow rate of 50 μl/min, compounds were injected for 60 s and dissociation was monitored for 180 s. The data collection rate was 10 Hz. Kds were determined using the BiaEvaluation software (Biacore) and calculated kinetically from the dissociation and association phase data for each of the peptides. The kinetic data were fitted to 1:1 binding models. Each individual peptide Kd was determined from three separate titrations. Within each titration at least two concentration points were duplicated to ensure stability and robustness of the chip surface.

eIF4E [3] = biological target: T1, eIF4E; assay: Competitive fluorescence anisotropy (FP) assay against FAM labeled tracer peptide; format: binding
Protocol: (§2) Apparent Kd values were determined for a variety of molecules via competitive anisotropy anisotropy experiments. Titrations were carried out with the concentrations eIF4E held constant at 200 nM, respectively and the labeled peptide at 50 nM. […] Apparent Kd values were determined by fitting the experimental data to the equations shown below:
[L]st and [L]t denote labeled ligand and total unlabeled ligand input concentrations, respectively. Kd2 is the dissociation constant of the interaction between the unlabelled ligand and the protein. […] Readings were carried out with an Envision Multilabel Reader (PerkinElmer). […] All titrations were carried out in triplicate. Curve-fitting was carried out using Prism 4.0 (GraphPad).

MDA-MB-231 cells [4] = assay: Western Blot of protein levels in treated cells, FIG. 12B; format: cell-based; conditions: MDA-MB-231, absence or presence of 10% Fetal calf serum, 1% DMSO
Text: Actin protein is a loading control to indicate that the same amount of proteins was loaded into each well.

MDA-MB-468 cells = assay: Normalized luminescence / cell viability, FIG. 12A; format: cell-based; conditions: MDA-MB-468, increasing peptide concentration
Protocol: (§3) FIG. 12A is a dot plot representing normalized luminescence in MDA-MB-468 and MDA-MB-231 cells over increased concentration of staple peptides. MDA-MB-468 and MDA-MB-231 cells were lysed and a recombinant luciferase protein was added to the lysed cells.

MDA-MB-231 cells [5] = assay: Normalized luminescence / cell viability, FIG. 12A; format: cell-based; conditions: MDA-MB-231, increasing peptide concentration
Protocol: as §3

[6] = biological target: T2, human eukaryotic translation initiation factor 4E (eIF4E), full-length (human, UniProt P06730 2-217); assay: SPR, Biacore T100, eIF4E immobilised on CM5, peptide as analyte, kinetic 1:1 fit; SPR (first value of the SPR/FP cell); weak, about 12 uM
T2 construct: mature; For SPR it was amine-coupled to a CM5 chip with m7GTP present in a 2:1 ratio. 'mature' is used here for full length; also called full length eIF4E
Protocol: (§4) For stock peptide solutions, the compounds were dissolved in 100% DMSO to a concentration of 10 mM; further dilutions of the peptide stock solutions into DMSO and/or running buffer were performed immediately prior to analysis. Running buffer consisted of 10 mM Hepes pH 7.6, 0.15M NaCl, 1 mM DTT and 0.1% Tween20. Stock/DMSO diluted peptide solutions were diluted into 1.03× running buffer to make a peptide solution with 3% DMSO final concentration. […] Surface Plasmon resonance experiments were performed on a Biacore T100 machine.
(§5) eIF4E was immobilized on a CM5 sensor chip. The CM5 chip was conditioned with a 6 s injection of 100 mM HCL, followed by a 6 s injection of 0.1% SDS and completed with a 6 s injection of 50 mM NaOH at a flow rate of 100 μl/min. […]
as §1, with “The data collection rate was 10 Hz.” left out, “The kinetic data were fitted to 1:1 binding models.” left out, “titrations.” for “titrations. Within each titration at least two concentration points were duplicated to ensure stability and robustness of the chip surface.”

[7] = biological target: T2, human eukaryotic translation initiation …; assay: Kd ratio from Table 2 (SPR/FP; which assay is not said; the reference is the linear template eIF4G^D5S)
[8] = biological target: T2, human eukaryotic translation initiation …; assay: Kd ratio from Table 2 (SPR/FP; which assay is not said)
[9] = biological target: T2, human eukaryotic translation initiation …; assay: competitive fluorescence anisotropy (FP), displacement of FAM tracer from eIF4E, apparent Kd
Protocol: as §2, with “below: […]” for “below:”

[10] = biological target: T2, human eukaryotic translation initiation …; assay: SPR, Biacore T100, eIF4E immobilised on CM5, peptide as analyte, kinetic 1:1 fit; SPR (first value of the SPR/FP cell); weak, about 9 uM
Protocol: as §4, §5
as §1, with “The data collection rate was 10 Hz.” left out, “The kinetic data were fitted to 1:1 binding models.” left out, “titrations.” for “titrations. Within each titration at least two concentration points were duplicated to ensure stability and robustness of the chip surface.”

[11] = biological target: T2, human eukaryotic translation initiation …; assay: SPR, Biacore T100, eIF4E immobilised on CM5, peptide as analyte, kinetic 1:1 fit
Protocol: as §4
eIF4E was immobilized on a CM5 sensor chip. The CM5 chip was conditioned with a 6 s injection of 100 mM HCL, followed by a 6 s injection of 0.1% SDS and completed with a 6 s injection of 50 mM NaOH at a flow rate of 100 μl/min. […] Purified eIF4E was diluted with 10 mM sodium acetate buffer (pH 5.0) to a final concentration of 0.5 μM with m⁷ GTP present in a 2:1 ratio in order to stabilize eIF4E. The amount of eIF4E immobilized on the activated surface was controlled by altering the contact time of the protein solution and was approximately 1000 RU. After the immobilization of the protein, a 7-min injection (at 10 μl min⁻¹) of 1 M ethanolamine (pH 8.5) was used to quench excess active succinimide ester groups.
as §1, with “titrations.” for “titrations. Within each titration at least two concentration points were duplicated to ensure stability and robustness of the chip surface.”

T1 sequence (P06730 whole entry): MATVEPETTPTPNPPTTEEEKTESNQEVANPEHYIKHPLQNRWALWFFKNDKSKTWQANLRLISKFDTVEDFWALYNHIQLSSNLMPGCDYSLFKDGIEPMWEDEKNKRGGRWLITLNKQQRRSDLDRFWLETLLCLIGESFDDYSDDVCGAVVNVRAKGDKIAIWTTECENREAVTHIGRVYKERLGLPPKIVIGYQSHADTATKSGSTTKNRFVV
T2 sequence (P06730 2-217): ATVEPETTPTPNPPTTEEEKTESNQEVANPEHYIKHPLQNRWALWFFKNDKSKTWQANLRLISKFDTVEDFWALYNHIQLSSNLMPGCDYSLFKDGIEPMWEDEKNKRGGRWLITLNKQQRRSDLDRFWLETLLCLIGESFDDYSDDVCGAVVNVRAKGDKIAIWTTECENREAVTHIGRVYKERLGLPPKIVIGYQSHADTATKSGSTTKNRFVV

Molecule: CC(=O)N[C@@H](CCCCN)C(=O)N[C@@H](CCCCN)C(=O)N[C@@H](CCCNC(=N)N)C(=O)N[C@@H](Cc1ccc(O)cc1)C(=O)N[C@@H](CO)C(=O)N[C@@H](CCCNC(=N)N)C(=O)N[C@@H](CCC(=O)O)C(=O)NC(C)(C)C(=O)N[C@@H](CC(C)C)C(=O)N[C@@H](CC(C)C)C(=O)NCC(=O)NC(C)(C)C(N)=O [TIP-02, KKRYSREXLLGX]
- helicity (circular dichroism): 0%
- Helicity (%) [1]: 0/ %
- affinity / binding to eIF4E (in words) (eIF4E [2]): greatly reduced affinity for eIF4E
- displacement of the FAM labeled peptide in the competition assay (eIF4E [3]): failed to displace the FAM labeled peptide

Molecule: CC(=O)N[C@@H](CCCCN)C(=O)N[C@@H](CCCCN)C(=O)N[C@@H](CCCNC(=N)N)C(=O)N[C@@H](Cc1ccc(O)cc1)C(=O)N[C@@H](CO)C(=O)N[C@@H](CCCNC(=N)N)C(=O)N[C@@H](CCC(=O)O)C(=O)N[C@]1(C)CCCC=CCCC[C@@](C)(C(=O)N[C@@H](Cc2ccccc2)C(N)=O)NC(=O)[C@H](CC(C)C)NC(=O)[C@H](CC(C)C)NC1=O [sTIP-03, KKRYSRE*LL*F]
- helicity (circular dichroism): 45%
- fold decrease / improvement in Kd over eIF4G^D5S (eIF4E [2]; stronger binding): 17 fold
- Bcl-XL protein levels (MDA-MB-231 cells [4]): down-regulates
- survivin protein levels (MDA-MB-231 cells [4]): down-regulates
- cell viability (normalized luminescence) (MDA-MB-468 cells): decreases cell viability in a dose-dependent manner
- cell viability (normalized luminescence) (MDA-MB-231 cells [5]): decreases cell viability in a dose-dependent manner

B1: TIP-01^Tr (peptide)
peptide: Ac-KKRYSR[Aib]FLL[Aib]-NH2
SMILES: CC(=O)N[C@@H](CCCCN)C(=O)N[C@@H](CCCCN)C(=O)N[C@@H](CCCNC(=N)N)C(=O)N[C@@H](Cc1ccc(O)cc1)C(=O)N[C@@H](CO)C(=O)N[C@@H](CCCNC(=N)N)C(=O)NC(C)(C)C(=O)N[C@@H](Cc1ccccc1)C(=O)N[C@@H](CC(C)C)C(=O)N[C@@H](CC(C)C)C(=O)NC(C)(C)C(N)=O
notes: Printed KKRYSRXFLLX; TIP-01 with the C-terminal F12 removed
- Kd [6]: 12100 nM

B2: sTIP-03 (peptide)
peptide: Ac-KKRYSRE[R5]LL[S5]F-NH2
modifications: staple 8-11
notes: Printed KKRYSRE*LL*F, * = staple position
- fold improvement in Kd [7]: 17 fold

B3: sTIP-01 (peptide)
peptide: Ac-KKRYSR[S5]FLL[S5]F-NH2
modifications: staple 7-11
SMILES: CC(=O)N[C@@H](CCCCN)C(=O)N[C@@H](CCCCN)C(=O)N[C@@H](CCCNC(=N)N)C(=O)N[C@@H](Cc1ccc(O)cc1)C(=O)N[C@@H](CO)C(=O)N[C@@H](CCCNC(=N)N)C(=O)N[C@@]1(C)CCCC=CCCC[C@@](C)(C(=O)N[C@@H](Cc2ccccc2)C(N)=O)NC(=O)[C@H](CC(C)C)NC(=O)[C@H](CC(C)C)NC(=O)[C@H](Cc2ccccc2)NC1=O
notes: Printed KKRYSR*FLL*F, * = staple position
- fold increase in Kd over eIF4G^D5S [8]: ~4.5 fold
- Kd [9]: 558 nM

B4: TIP-02 (peptide)
peptide: Ac-KKRYSRE[Aib]LLG[Aib]-NH2
SMILES: CC(=O)N[C@@H](CCCCN)C(=O)N[C@@H](CCCCN)C(=O)N[C@@H](CCCNC(=N)N)C(=O)N[C@@H](Cc1ccc(O)cc1)C(=O)N[C@@H](CO)C(=O)N[C@@H](CCCNC(=N)N)C(=O)N[C@@H](CCC(=O)O)C(=O)NC(C)(C)C(=O)N[C@@H](CC(C)C)C(=O)N[C@@H](CC(C)C)C(=O)NCC(=O)NC(C)(C)C(N)=O
notes: Printed KKRYSREXLLGX, X = AIB; also called AIB derivative of sTIP-02
- Kd [10]: 9190 nM

B5: TIP-01 (peptide)
peptide: Ac-KKRYSR[Aib]FLL[Aib]F-NH2
SMILES: CC(=O)N[C@@H](CCCCN)C(=O)N[C@@H](CCCCN)C(=O)N[C@@H](CCCNC(=N)N)C(=O)N[C@@H](Cc1ccc(O)cc1)C(=O)N[C@@H](CO)C(=O)N[C@@H](CCCNC(=N)N)C(=O)NC(C)(C)C(=O)N[C@@H](Cc1ccccc1)C(=O)N[C@@H](CC(C)C)C(=O)N[C@@H](CC(C)C)C(=O)NC(C)(C)C(=O)N[C@@H](Cc1ccccc1)C(N)=O
notes: Printed KKRYSRXFLLXF, X = AIB; also called diAIB derivative of sTIP-01
- fold decrease in Kd over eIF4G^D5S [8]: ~2 fold
- Kd [9]: 52.4 nM
- Kd [11]: 59.7 nM
